The results in this text go back to PMC4728560, “TCTP contains a BH3-like domain, which instead of inhibiting, activates Bcl-xL” (Scientific Reports, 2016).

Experiment [1] has as its target Bcl-xL, recombinant protein (human) (UniProt Q07817). Description: ITC; peptide titrated into Bcl-xL in the cell; 30 °C, 50 mM ammonium bicarbonate pH 9; ITC200 calorimeter.
The target is the same in experiment [2]. The experiment is described as above. This is another data set of the same source.

Where two headings read alike, the source gives them in different places.

Bcl-xL, recombinant protein (human), sequence (Q07817 whole entry): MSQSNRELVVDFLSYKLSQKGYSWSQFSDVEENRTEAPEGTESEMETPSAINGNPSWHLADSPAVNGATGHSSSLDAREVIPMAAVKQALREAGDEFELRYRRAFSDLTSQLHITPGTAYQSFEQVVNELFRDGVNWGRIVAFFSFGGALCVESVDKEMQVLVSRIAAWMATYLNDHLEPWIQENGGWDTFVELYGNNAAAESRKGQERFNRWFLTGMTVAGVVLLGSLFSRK

Turning to DEMFSDIYKIREIADGLCLEV [TCTP_(11–31) peptide], the Kd in experiment [1] was 12 µM; in experiment [2] it was 10 to 15 µM.
